Ki and EC50 data for three molecules are collected here from paper PMC9760430, “A stapled chromogranin A-derived peptide homes in on tumors that express αvβ6 or αvβ8 integrins” (International Journal of Biological Sciences, 2023).

Bridge positions count the residues as written; N and C are the ends. Square brackets hold non-standard residues; d marks the D form. Ends that are not written are not given here. Lys(N3) = [N-]=[N+]=NCCCC[C@H](N)C(=O)O; Pra = C#CC[C@H](N)C(=O)O

Common to all, as to conditions: both partners purified
Assay [1] has as its target T1, recombinant human αvβ6 integrin (human, UniProt P06756 31-1048; P18564 22-709).
T1 construct: integrin αv subunit, human; integrin β6 subunit, human; details of reagents are in the Supplemental Materials; Such bought integrins are, as I recall, soluble extracellular heterodimers; also called purified αvβ6; source: bought: Bio-Techne
As to the kind of experiment: ELISA; competitive integrin binding assay: αvβ6-coated plates, isoDGR peptide labeled with peroxidase as probe for the integrin-binding site; Ki. For orientation: ELISA stands for enzyme-linked immunosorbent assay.

Assay [2] concerns the target T2, recombinant murine αvβ8 integrin (murine, UniProt P43406 31-1044; Q0VBD0 22-681).
T2 construct: integrin αv subunit, mouse; integrin β8 subunit, mouse; details of reagents are in the Supplemental Materials; source: bought: Bio-Techne
As to the kind of experiment: direct integrin binding assay (near-infrared fluorescence scan of plates); microtiter plates coated with αvβ6 or αvβ8; peptide-IRDye conjugates incubated 1 h, washed, bound fluorescence read with Odyssey CLx; EC50.

The target of assay [3] is T3, recombinant murine αvβ6 integrin (murine, UniProt P43406 31-1044; Q9Z0T9 22-708).
T3 construct: integrin αv subunit, mouse; integrin β6 subunit, mouse; details of reagents are in the Supplemental Materials; source: bought: Bio-Techne
The description is as above.

Assay [4] has as its target T1, recombinant human αvβ6 integrin. The description is as above.
Assay [5] addresses T4, recombinant human αvβ8 integrin (human, UniProt P06756 31-1048; P26012 43-684).
T4 construct: integrin αv subunit, human; integrin β8 subunit, human; details of reagents are in the Supplemental Materials; also called purified αvβ8; source: bought: Bio-Techne
Described as above.

T3 sequence (P43406 whole entry, chain 1 of 2): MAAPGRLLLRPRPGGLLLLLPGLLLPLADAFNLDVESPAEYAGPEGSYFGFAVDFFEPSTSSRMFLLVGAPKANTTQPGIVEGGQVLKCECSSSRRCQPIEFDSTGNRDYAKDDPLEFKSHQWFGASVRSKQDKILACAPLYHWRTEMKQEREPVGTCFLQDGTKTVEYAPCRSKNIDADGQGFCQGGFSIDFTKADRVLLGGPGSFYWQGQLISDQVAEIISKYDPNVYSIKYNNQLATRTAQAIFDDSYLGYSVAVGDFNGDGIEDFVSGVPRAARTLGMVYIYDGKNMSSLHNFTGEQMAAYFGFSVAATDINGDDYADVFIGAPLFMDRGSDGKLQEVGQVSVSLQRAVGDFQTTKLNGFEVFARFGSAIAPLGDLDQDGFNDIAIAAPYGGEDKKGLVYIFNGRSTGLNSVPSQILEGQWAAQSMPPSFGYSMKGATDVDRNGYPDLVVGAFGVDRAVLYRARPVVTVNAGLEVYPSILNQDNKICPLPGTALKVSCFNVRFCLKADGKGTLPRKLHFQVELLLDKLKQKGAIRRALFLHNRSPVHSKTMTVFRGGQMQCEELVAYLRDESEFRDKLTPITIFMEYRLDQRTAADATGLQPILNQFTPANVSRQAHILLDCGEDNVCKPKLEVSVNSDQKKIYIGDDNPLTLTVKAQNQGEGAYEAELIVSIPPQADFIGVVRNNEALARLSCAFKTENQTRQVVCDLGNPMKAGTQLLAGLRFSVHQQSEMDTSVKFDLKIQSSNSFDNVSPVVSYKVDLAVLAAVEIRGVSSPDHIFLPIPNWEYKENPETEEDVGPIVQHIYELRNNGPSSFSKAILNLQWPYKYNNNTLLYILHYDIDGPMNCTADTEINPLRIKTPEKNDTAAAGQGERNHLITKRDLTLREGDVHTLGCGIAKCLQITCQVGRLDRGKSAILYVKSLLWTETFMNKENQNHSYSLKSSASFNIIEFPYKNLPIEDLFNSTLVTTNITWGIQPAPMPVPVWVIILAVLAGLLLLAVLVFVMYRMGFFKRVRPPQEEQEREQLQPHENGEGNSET
T3 sequence (Q9Z0T9 whole entry, chain 2 of 2): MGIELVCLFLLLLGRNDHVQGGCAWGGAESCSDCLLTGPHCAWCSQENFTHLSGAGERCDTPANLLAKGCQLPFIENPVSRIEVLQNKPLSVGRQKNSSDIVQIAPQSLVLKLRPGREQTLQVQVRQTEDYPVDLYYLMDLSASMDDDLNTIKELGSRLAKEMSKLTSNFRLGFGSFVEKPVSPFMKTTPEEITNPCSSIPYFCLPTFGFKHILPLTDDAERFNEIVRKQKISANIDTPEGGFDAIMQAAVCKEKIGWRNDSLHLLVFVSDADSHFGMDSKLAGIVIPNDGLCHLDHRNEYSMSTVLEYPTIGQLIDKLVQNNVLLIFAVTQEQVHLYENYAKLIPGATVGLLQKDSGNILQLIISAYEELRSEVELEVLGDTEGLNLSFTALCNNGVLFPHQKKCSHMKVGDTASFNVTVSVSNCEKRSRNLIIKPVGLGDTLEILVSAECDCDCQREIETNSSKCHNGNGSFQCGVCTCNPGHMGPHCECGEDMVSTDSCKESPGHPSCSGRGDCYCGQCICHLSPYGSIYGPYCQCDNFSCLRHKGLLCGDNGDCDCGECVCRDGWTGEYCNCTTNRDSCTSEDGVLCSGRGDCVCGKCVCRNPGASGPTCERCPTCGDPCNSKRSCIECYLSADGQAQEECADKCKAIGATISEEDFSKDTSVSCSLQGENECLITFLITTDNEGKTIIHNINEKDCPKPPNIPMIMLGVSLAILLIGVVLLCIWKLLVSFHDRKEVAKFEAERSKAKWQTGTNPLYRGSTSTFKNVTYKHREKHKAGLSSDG
T2 sequence (P43406 whole entry, chain 1 of 2): as the sequence (P43406 whole entry, chain 1 of 2) above
T2 sequence (Q0VBD0 whole entry, chain 2 of 2): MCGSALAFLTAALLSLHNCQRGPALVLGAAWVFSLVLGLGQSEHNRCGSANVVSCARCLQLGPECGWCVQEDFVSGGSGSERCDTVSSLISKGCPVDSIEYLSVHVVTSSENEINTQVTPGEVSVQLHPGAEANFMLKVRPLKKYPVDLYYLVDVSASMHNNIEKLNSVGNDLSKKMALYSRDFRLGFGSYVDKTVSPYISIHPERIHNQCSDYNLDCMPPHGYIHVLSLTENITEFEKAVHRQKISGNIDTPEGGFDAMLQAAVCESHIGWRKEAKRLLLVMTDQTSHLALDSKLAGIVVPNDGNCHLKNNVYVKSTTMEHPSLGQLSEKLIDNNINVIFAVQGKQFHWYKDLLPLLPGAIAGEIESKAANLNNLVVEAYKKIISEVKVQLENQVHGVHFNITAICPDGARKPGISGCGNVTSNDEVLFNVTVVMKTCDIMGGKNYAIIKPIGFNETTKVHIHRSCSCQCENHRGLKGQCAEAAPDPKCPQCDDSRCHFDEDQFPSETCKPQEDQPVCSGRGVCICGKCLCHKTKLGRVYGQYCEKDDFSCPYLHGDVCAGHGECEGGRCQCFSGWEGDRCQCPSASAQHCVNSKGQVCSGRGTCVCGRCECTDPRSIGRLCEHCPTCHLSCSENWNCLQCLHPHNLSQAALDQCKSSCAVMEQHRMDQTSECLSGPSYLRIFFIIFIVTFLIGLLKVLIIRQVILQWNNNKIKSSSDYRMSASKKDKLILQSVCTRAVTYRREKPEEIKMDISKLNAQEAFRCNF

Regarding CFETLRGDLRILSILR[Pra]QNL[Lys(N3)]KELQD-NH2 (triazole 17-21) [peptide 5a], the Ki – broadly, a measure of affinity in units of concentration, obtained from inhibition or displacement – in assay [1] was 1.7 nM.

As for C(maleimide‑NOTA)FETLRGDLRILSILR[Pra]QNL[Lys(N3)]KELQD-NH2 (triazole 17-21) [5a-NOTA conjugate], the Ki in assay [1] was 2.3 nM.

Consider C(maleimide‑IRDye 800CW)FETLRGDLRILSILR[Pra]QNL[Lys(N3)]KELQD-NH2 (triazole 17-21) [5a-IRDye conjugate], for which the EC50 – broadly, the concentration giving half of the maximal effect – was 0.65 nM in assay [2], 0.9 nM in assay [3], 2.8 nM in assay [4] and 1.9 nM in assay [5].
